Assay [1] relates to B16BL6 cells. The experiment in a line: FGF-induced proliferation of B16BL6 cells in vitro. The format is cell-based.
Another assay deals with Erk-1, 2. The experiment in a line: Erk-1, 2 activation in FGF2 stimulated B16BL6 cells (immunoblot). It counts as cell-based. The note with it: enzyme 200 nM 30 min before 50 ng/ml FGF2. The method, then:
a. Methods: B16BL6 cells in 10 cm culture dishes were serum starved for 48 hours before stimulation with 50 ng/ml FGF2. Cells were stimulated for 20 minutes before whole cell lysates were prepared with 1 ml modified RIPA buffer containing various enzyme inhibitors (50 mM Tris-HCl, pH 7.4, 1% NP-40, 0.25% Na-deoxycholate, 150 mM NaCl, 1 mM EDTA, 1 mM PMSF, 1 μg/ml aprotinin, leupeptin, and pepstatin, 1 mM activated Na3VO4, 1 mM NaF). Protein concentration in the lysate was determined using the Bio-Rad protein assay kit (BioRad) and adjusted accordingly for electrophoresis analysis. For the heparinase treated groups, cells were treated with either hep I or hep III (200 nM) for 30 min at 37° C. prior to addition of FGF2. The immunoblot was probed with anti-Erk-1, 2 or anti-phospho-Erk-1, 2 antibody (New England Biolabs; MA) and detected by anti-rabbit IgG conjugated to HRP using SuperSignal West Pico Chemiluminescent substrate (Pierce, Ill.).

The test system of assay [2] is B16BL6 cells. Nature of the assay: Growth in mice of B16BL6 cells after heparinase removal of the HLGAG coat. The format is in vivo. The note with it: HLGAG coat removed. An excerpt:
There are two possible mechanisms by which heparinase may be acting on tumor cells. For instance, heparinase III treatment of cells may result in cells losing their unique surface HLGAG coat and this directly or indirectly may impinge on their ability to grow or metastasize. On the other hand heparinase III treatment of cells may also result in the generation of distinct HLGAG fragments, and these fragments could then directly or indirectly modulate tumor cell function. It was thought that heparinase III may function though either one of these mechanisms or through some combination of these mechanisms. To investigate the mechanisms of action further, we treated B16BL6 cells with either heparinases I or III, to remove the HLGAG coat on the tumor cell surface.
In further support of this conclusion ex vivo digestion of the HLGAG coat present on tumor cells with either heparinase, followed by centrifugation and resuspension in PBS to remove the enzyme and HLGAG fragments released from the cell surface, prior to in vivo injection results in the cells being functionally identical to controls. Thus the released tumor cell HLGAG fragments appear to play the key role in modulating tumor growth and metastasis.

The next assay relates to B16BL6 melanoma. Nature of the assay: Histological examination of tumor samples (apoptosis, TdT labeling). The format is in vivo, mice. The protocol: Immunohistochemistry was done as described (Parangi et al., 1996; O'Reilly et al., 1994) with minor modifications. Briefly, tumor tissues were fixed in either 4% (vol/vol) formaldehyde overnight for von Willebrand factor (vWF) staining and terminal deoxynucleotide transferase (TdT) labeling or in Glyo-Fixx solution overnight for Ki-67 nuclear antigen staining. Tissues were embedded in paraffin according to standard histological procedures. For vWF staining, sections (5 μm thick) were incubated with 0.2 N HCl for 10 min. autoclaved in a Coplin jar immersed with Target retrieval Solution (Dako) for 15 min. and permeabilized with 2 μg/ml proteinase K at 37° C. for 15 min. Sections were incubated with rabbit anti-human vWF antibody coupled with horseradish peroxidase (HRP) (Dako). Positive staining was detected by substrate reaction with diaminobenzidine. Sections were counterstained with Gill's hematoxylin and mounted in Permount (Fisher). […] Capillary density was determined by counting the number of vWF-positive capillaries per high power field (HPF, ×200). The proliferative and apoptotic indices of tumor cells within areas of viable tumor were estimated from the percentage of cells scored under a light microscope at 400-fold magnification. A minimum of 2000 cells were counted in each animal. # indicates standard error.

The test system of assay [3] is Lewis lung carcinoma (LLC) tumors. The experiment in a line: Primary tumor growth of Lewis lung carcinoma (LLC) in mice. It counts as in vivo. The settings on record: 12 mg/kg per day. The protocol: To ensure that these observations were not limited to the tumor model chosen, hep III was used to treat mice bearing Lewis lung carcinoma (LLC) tumors. Growth curves of primary tumor growth for LLC tumor in C57BL/6 mice treated with either PBS or heparinase III were plotted. 4×10^5 log phase LLC cells were injected subcutaneously to the flank of mice on day 1. Daily injection of 0.1 ml of either PBS or 2 mg/ml recombinantly expressed heparinase III started at the day 4 and continued throughout the experiment. At day 8, osmotic pumps (100 μl capacity delivering at 0.5 μl per hour) containing PBS or 3 mg/ml hep III were implanted subcutaneously at a place remote from the tumor site. Mice were sacrificed at day 20. Lung metastasis of LLC cells injected through tail vein were quantitated as number of lung nodules. Log growth LLC cells were trypsinized for 30 seconds and resuspended in PBS to a final concentration of 1×10^6 per ml. For experimental group, cells were incubated with […] hep III for 30 minutes at 37° C. before injecting 0.2 ml of cell suspension via tail vein. Mice were euthanized 12 days after tail vein injections, lungs were harvested, rinsed in tap water and fixed overnight in Bouin's solution. The number of nodules on lung surface was counted with the aid of a dissection microscope.

In the next assay the test system is FGFR1. The experiment in a line: FGFR1 phosphorylation in B16BL6 tumor samples. The arrangement: species or system mice. The note with it: mouse, in vivo. The method, then:
c. Effect of treatment of tumor with hep I and hep III in FGFR1 activation compared to PBS. Level of phosphorylated FGFR1 in tumor samples was assessed by standard immunoprecipitation followed by Westernblotting with phosphotyrosine specific antibody. Primary B16BL6 tumors were grown and treated as described earlier and at day 15 the tumor was harvested in cold modified RIPA buffer containing enzyme inhibitors and homogenized. The homogenates were past through 25-gauge needle 3 times and centrifuged. The supernatant was adjusted for protein concentration using the Bio-Rad protein assay kit (Bio-Rad). FGFR1 was immunoprecipitated with poly-clonal anti-FGFR1 antibody (Santa Cruz Biotechnology, Inc., CA). Samples were then pelleted, washed, and eluted from the beads by addition of sample buffer and boiled for 3 minutes (Kapila, Y. L., Wang, S. & Johnson, P. W. Mutations in the heparin binding domain of fibronectin in cooperation with the V region induce decreases in pp125(FAK) levels plus proteoglycan-mediated apoptosis via caspases. J Biol Chem 274, 30906-13 (1999).). After electrophoresis, the gel was transferred to nitrocellulose membrane by standard methods. The immunoblot was probed with phosphotyrosine specific antibody conjugated to HRP (RC20; Transduction Laboratories, Lexington, Ky.) and developed with SuperSignal West Pico Chemiluminescent substrate. […]

B1: heparinase III: HLGAG degrading enzyme from Flavobacterium heparinum (EC 4.2.2.8), SEQ ID NO:2; cleaves heparan sulfate (protein, listed as Pedobacter heparinus)
chain: MTTKIFKRIIVFAVIALSSGNILAQSSSITRKDFDHINLEYSGLEKVNKAVAAGNYDDAAKALLAYYREKSKAREPDFSNAEKPADIRQPIDKVTREMADKALVHQFQPHKGYGYFDYGKDINWQMWPVKDNEVRWQLHRVKWWQAMALVYHATGDEKYAREWVYQYSDWARKNPLGLSQDNDKFVWRPLEVSDRVQSLPPTFSLFVNSPAFTPAFLMEFLNSYHQQADYLSTHYAEQGNHRLFEAQRNLFAGVSFPEFKDSPRWRQTGISVLNTEIKKQVYADGMQFELSPIYHVAAIDIFLKAYGSAKRVNLEKEFPQSYVQTVENMIMALISISLPDYNTPMFGDSWITDKNFRMAQFASWARVFPANQAIKYFATDGKQGKAPNFLSKALSNAGFYTFRSGWDKNATVMVLKASPPGEFHAQPDNGTFELFIKGRNFTPDAGVFVYSGDEAIMKLRNWYRQTRIHSTLTLDNQNMVITKARQNKWETGNNLDVLTYTNPSYPNLDHQRSVLFINKKYFLVIDRAIGEATGNLGVHWQLKEDSNPVFDKTKNRVYTTYRDGNNLMIQSLNADRTSLNEEEGKVSYVYNKELKRPAFVFEKPKKNAGTQNFVSIVYPYDGQKAPEISIRENKGNDFEKGKLNLTLTINGKQQLVLVP
For the molecule B1, the “FGF-induced proliferation of B16BL6 cells” value in the assay on B16BL6 cells [1] is recorded as “inhibit FGF-induced proliferation”. Moreover, the “Erk-1, 2 activation upon FGF2 stimulation” value in the assay on Erk-1, 2 was “decreased Erk-1, 2 activation”. Also, the “ability of treated B16BL6 cells to grow in mice compared to untreated cells” value with B16BL6 cells [2] is listed as “no effect”. Moreover, the “apoptosis in tumor samples, enzyme treated tumors” value with B16BL6 melanoma is listed as “increased apoptosis”. In addition, in assay [3], the LLC tumor growth result is “inhibition in tumor growth”. Also, the “phosphorylation of FGFR1 in primary tumor” value in the assay with FGFR1 is given as “inhibited phosphorylation of FGFR1”.

Source of the values: patent publication US7939292B2, “Modified heparinase III and methods of sequencing therewith” (Massachusetts Institute of Technology, priority 2000, dated 2011).
